# Data reported in patent publication US20250152742A1, “COMPOSITIONS AND METHODS FOR NEUROLOGICAL DISEASES” (Trames Bio, Inc., priority 2022, published 2025).
# B1: CODA534: engineered receptor: L131S, S172D in SEQ ID NO: 33 (protein)
# chain: MRCSPGGVWLALAASLLHVSLQGEFQRKLYKELVKNYNPLERPVANDSQPLTVYFSLSLLQIMDVDEKNQVLTTNIWLQMSWTDHYLQWNVSEYPGVKTVRFPDGQIWKPDILLYNSADERFDATFHTNVSVNSSGHCQYLPPGIFKSSCPMDLKNFPMDVQTCKLKFGSWDYGGWSLDLQMQEADISGYIPNGEWDLVGIPGKRSERFYECCKEPYPDVTFTVTMRRRMGYYLIQMYIPSLLIVILSWISFWINMDAAPARVGLGITTVLTMTTQSSGSRASLPKVSYVKAIDIWMAVCLLFVFSALLEYAAVNFVSRQHKELLRFRRKRRHHKSPMLNLFQEDEAGEGRFNFSAYGMGPACLQAKDGISVKGANNSNTTNPPPAPSKSPEEMRKLFIQRAKKIDKISRIGFPMAFLIFNMFYWIIYKIVRREDVHNQ
# modifications: synthetic sequence of chimeric LGIC
# System: engineered chimeric receptor SEQ ID NO: 33 and its mutants (human α7-nAChR ligand binding domain / human GlyRα1 ion pore domain) in Lenti-X 293T cells
# Assay: YFP fluorescence quenching anion reporter plate reader assay (percent quench, EC50)
# Assay type: cell-based
# Conditions: for YFP fluorescence quenching using CNL001 (percent quench): receptor named in row
# Method in brief: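 Percent quench compares mean YFP signal over the final 10 s with the 15 s baseline before ligand, added in iodide-containing extracellular solution (pH 7.2). Cells were LX293T carrying a YFP anion reporter, transiently transfected with the channel construct; plates were preincubated 30 min at 37 °C.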
molecule,measurement,setting,value
B1,YFP fluorescence quenching using CNL001 (percent quench),"1 nM CNL001, first column so headed",23.438%
same,YFP fluorescence quenching using CNL001 (percent quench),"1 nM CNL001, second column so headed",28.59%
same,YFP fluorescence quenching using TC-5619/Bradanicline (percent quench),1 nM brd (TC-5619/Bradanicline),−1.13%
same,YFP fluorescence quenching using TC-5619/Bradanicline (percent quench),3 nM brd (TC-5619/Bradanicline),−3.83%
same,YFP fluorescence quenching using CNL001 (percent quench),"10 nM CNL001, first column so headed",56.882%
same,YFP fluorescence quenching using CNL001 (percent quench),"10 nM CNL001, second column so headed",56.777%
same,YFP fluorescence quenching using TC-5619/Bradanicline (percent quench),10 nM brd (TC-5619/Bradanicline),−3.78%
same,YFP fluorescence quenching using TC-6683 (percent quench),30 nM TC-6683,−22.464%
same,YFP fluorescence quenching using CNL001 (percent quench),"50 nM CNL001, first column so headed",65.044%
same,YFP fluorescence quenching using CNL001 (percent quench),"50 nM CNL001, second column so headed",67.373%
same,YFP fluorescence quenching using ABT-126 (percent quench),50 nM abt (ABT-126),−11.96%
same,YFP fluorescence quenching using CNL001 (percent quench),"100 nM CNL001, first column so headed",68.666%
same,YFP fluorescence quenching using CNL001 (percent quench),"100 nM CNL001, second column so headed",70.357%
same,YFP fluorescence quenching (percent quench),100 nM CNL002,14.26%
same,YFP fluorescence quenching using ABT-126 (percent quench),100 nM abt (ABT-126),−10.72%
same,YFP fluorescence quenching using AZD-0328 (percent quench),100 nM azd0328,−9.32%
same,YFP fluorescence quenching using TC-5619/Bradanicline (percent quench),100 nM brd (TC-5619/Bradanicline),−2.03%
same,YFP fluorescence quenching using TC-6683 (percent quench),300 nM TC-6683,−23.976%
same,YFP fluorescence quenching using ABT-126 (percent quench),300 nM abt (ABT-126),11.65%
same,YFP fluorescence quenching using AZD-0328 (percent quench),300 nM azd0328,4.94%
same,YFP fluorescence quenching using CNL001 (percent quench),"1 uM CNL001, first column so headed",73.019%
same,YFP fluorescence quenching using CNL001 (percent quench),"1 uM CNL001, second column so headed",73.527%
same,YFP fluorescence quenching (percent quench),1 uM CNL002,45.55%
same,YFP fluorescence quenching using ABT-126 (percent quench),1 uM abt (ABT-126),−3.06%
same,YFP fluorescence quenching using TC-5619/Bradanicline (percent quench),1 uM brd (TC-5619/Bradanicline),1.68%
same,YFP fluorescence quenching using TC-6683 (percent quench),3 uM TC-6683,−24.897%
same,YFP fluorescence quenching (percent quench),10 uM ach (acetylcholine),−11.3%
same,YFP fluorescence quenching (percent quench),30 uM CNL002,64.93%
same,YFP fluorescence quenching using TC-6683 (percent quench),30 uM TC-6683,−20.474%
same,YFP fluorescence quenching using AZD-0328 (percent quench),30 uM azd0328,60.61%
same,YFP fluorescence quenching using TC-6683 (percent quench),100 uM TC-6683,−22.253%
same,YFP fluorescence quenching (percent quench),100 uM ach (acetylcholine),−27.53%
same,YFP fluorescence quenching (percent quench),1 mM ach (acetylcholine),2.84%
same,YFP fluorescence quenching (percent quench),3 mM ach (acetylcholine),14.65%
same,"YFP fluorescence quenching using Facinicline, 30 nM fac",ligand Facinicline 30 nM,−23.44
same,"YFP fluorescence quenching using Facinicline, 300 nM fac",ligand Facinicline 300 nM,2.75
same,"YFP fluorescence quenching using Facinicline, 10 uM fac",ligand Facinicline 10 uM,69.71
same,"YFP fluorescence quenching using Facinicline, 30 uM fac",ligand Facinicline 30 uM,61.44
same,"YFP fluorescence quenching using TC-6987, 1 uM tc6987",ligand TC-6987 1 uM,−20.99
same,"YFP fluorescence quenching using TC-6987, 10 uM tc6987",ligand TC-6987 10 uM,−27.62
same,"YFP fluorescence quenching using TC-6987, 500 uM tc6987",ligand TC-6987 500 uM,−24.22
